# Reference: patent US20160039904A1, “STABILIZED SINGLE HUMAN CD4 DOMAINS AND FUSION PROTEINS” (priority 2013, published 2016)
# Like-named read-outs stand apart in the source and are kept apart here.
# What was measured:
# [1] = target: HIV-1 Env of isolate CM243 (HIV-1); assay: cell-based or functional assay
# [2] = target: HIV-1 Env of isolate JRFL (HIV-1); assay: cell-based or functional assay
# [3] = target: HIV-1 Env of isolate Z2Z6 (HIV-1); assay: cell-based or functional assay
# [4] = target: HIV-1 Env of isolate 89.6 (HIV-1); assay: cell-based or functional assay
# [5] = target: HIV-1 Env of isolate IIIB (HIV-1); assay: cell-based or functional assay
# [6] = target: HIV-1 Env of isolate GXC (HIV-1); assay: cell-based or functional assay
# [7] = target: HIV-1 Env of isolate 92UG037.8 (HIV-1); assay: cell-based or functional assay
# [8] = target: HIV-1 Env of isolate NL4-3 (HIV-1); assay: cell-based or functional assay
# [9] = target: HIV-1 Env of isolate R2 (HIV-1); assay: cell-based or functional assay
# [10] = target: HIV-1 Env of isolate JRCSF (HIV-1) (UniProt P20871); assay: cell-based or functional assay
# HIV-1 Env of isolate JRCSF (HIV-1), sequence (P20871 32-848 limits assumed): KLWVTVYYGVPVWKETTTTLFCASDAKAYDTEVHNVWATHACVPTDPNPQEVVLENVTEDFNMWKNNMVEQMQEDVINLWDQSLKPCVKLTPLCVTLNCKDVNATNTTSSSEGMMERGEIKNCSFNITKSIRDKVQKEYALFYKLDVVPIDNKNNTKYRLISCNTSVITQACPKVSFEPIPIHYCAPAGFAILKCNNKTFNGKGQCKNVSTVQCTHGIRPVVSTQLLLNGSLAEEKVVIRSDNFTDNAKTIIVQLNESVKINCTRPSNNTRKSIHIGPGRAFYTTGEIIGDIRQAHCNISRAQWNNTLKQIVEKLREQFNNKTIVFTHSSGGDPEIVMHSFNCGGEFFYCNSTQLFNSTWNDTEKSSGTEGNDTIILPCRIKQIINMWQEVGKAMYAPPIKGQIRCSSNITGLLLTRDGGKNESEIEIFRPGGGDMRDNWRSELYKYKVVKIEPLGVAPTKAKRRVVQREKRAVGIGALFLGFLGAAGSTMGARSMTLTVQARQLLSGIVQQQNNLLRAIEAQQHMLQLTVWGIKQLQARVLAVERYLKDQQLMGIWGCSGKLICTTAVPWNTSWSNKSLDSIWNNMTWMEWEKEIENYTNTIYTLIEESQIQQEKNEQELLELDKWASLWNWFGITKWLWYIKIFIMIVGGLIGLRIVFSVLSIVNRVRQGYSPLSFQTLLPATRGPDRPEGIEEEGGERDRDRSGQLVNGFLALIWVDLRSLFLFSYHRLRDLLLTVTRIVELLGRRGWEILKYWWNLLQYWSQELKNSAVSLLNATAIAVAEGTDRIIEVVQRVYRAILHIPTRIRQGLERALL
# [11] = target: HIV-1 Env of isolate Bal (HIV-1); assay: cell-based or functional assay
# [12] = target: HIV-1 Env of isolate GXE (HIV-1); assay: cell-based or functional assay
# [13] = target: HIV-1 Env of isolate 55815.EC3 (HIV-1); assay: cell-based or functional assay
# [14] = target: HIV-1 Env of isolate 57128.VRC18 (HIV-1); assay: cell-based or functional assay
# [15] = target: HIV-1 Env of isolate CM240.EC1 (HIV-1); assay: cell-based or functional assay
# [16] = target: HIV-1 Env of isolate BZ167.ec9 (HIV-1); assay: cell-based or functional assay
# [17] = target: HIV-1 Env of isolate A07412VRC12A (HIV-1); assay: cell-based or functional assay
# [18] = target: HIV-1 Env of isolate GS-015.EC12 (HIV-1); assay: cell-based or functional assay
# [19] = target: HIV-1 Env of isolate PBL286.VRC36aPV (HIV-1); assay: cell-based or functional assay
# [20] = target: HIV-1 Env of isolate CAM0015BBY.EC3 (HIV-1); assay: cell-based or functional assay
# [21] = target: HIV-1 Env of isolate Bal.EC1 TC (HIV-1); assay: cell-based or functional assay
# [22] = target: HIV-1 Env of isolate KNH1088.EC5 (HIV-1); assay: cell-based or functional assay
# [23] = target: HIV-1 Env of isolate AD8 (HIV-1); assay: cell-based or functional assay
# [24] = target: HIV-1 Env of isolate KNH1144.EC1 (HIV-1); assay: cell-based or functional assay
# [25] = target: HIV-1 Env of isolate N1 1046.e3 PV (HIV-1); assay: cell-based or functional assay
# [26] = target: HIV-1 Env of isolate JRFL (HIV-1); assay: cell-based or functional assay; remark: listed apart in the source
# [27] = target: HIV-1 Env of isolate Bal (HIV-1); assay: cell-based or functional assay; remark: listed apart in the source
# gp140Con-s (HIV-1) [28] = target: gp140Con-s (HIV-1)
# gp140Con-s (HIV-1) [29] = assay: ELISA (OD 450 nm) on Cons gp140 (gp140Con-s), sCD4Fc titrated [A]
substance,measurement,setting,value
2G12 (antibody),"IC50, neutralization of pseudotyped HIV-1; '-' = No significant neutralization at the highest antibody concentration (67 nM) tested",[1],> 67000 pM
same,"IC90, neutralization of pseudotyped HIV-1; '-' = No significant neutralization at the highest antibody concentration (67 nM) tested",[1],> 67000 pM
same,"IC50, neutralization of pseudotyped HIV-1",[2],3000 pM
same,"IC90, inhibition of Env-mediated cell-cell fusion",[2],67000 pM
same,"IC50, neutralization of pseudotyped HIV-1",[3],700 pM
same,"IC50, neutralization of pseudotyped HIV-1",[4],1300 pM
same,"IC90, neutralization of pseudotyped HIV-1",[4],43000 pM
same,"IC50, neutralization of pseudotyped HIV-1",[5],1500 pM
same,"IC90, neutralization of pseudotyped HIV-1",[5],9300 pM
same,"IC50, neutralization of pseudotyped HIV-1; '-' = No significant neutralization at the highest antibody concentration (67 nM) tested",[6],> 67000 pM
same,"IC90, neutralization of pseudotyped HIV-1; '-' = No significant neutralization at the highest antibody concentration (67 nM) tested",[6],> 67000 pM
same,"IC50, neutralization of pseudotyped HIV-1",[7],530 pM
same,"IC50, neutralization of pseudotyped HIV-1",[8],1300 pM
same,"IC50, neutralization of pseudotyped HIV-1",[9],680 pM
same,"IC90, neutralization of pseudotyped HIV-1",[9],4600 pM
same,"IC50, neutralization of pseudotyped HIV-1",[10],580 pM
same,"IC90, neutralization of pseudotyped HIV-1",[10],9300 pM
same,"IC50, inhibition of Env-mediated cell-cell fusion",[11],38000 pM
same,"IC90, inhibition of Env-mediated cell-cell fusion",[11],> 67000 pM
same,"IC90, neutralization of pseudotyped HIV-1",[11],41000 pM
same,"IC50, neutralization of pseudotyped HIV-1; '-' = No significant neutralization at the highest antibody concentration (67 nM) tested",[12],> 67000 pM
same,"IC90, neutralization of pseudotyped HIV-1; '-' = No significant neutralization at the highest antibody concentration (67 nM) tested",[12],> 67000 pM
4Dm2m (bispecific antibody),"IC50, neutralization of pseudotyped HIV-1",[1],290 pM
same,"IC90, neutralization of pseudotyped HIV-1",[1],1200 pM
same,"IC50, inhibition of Env-mediated cell-cell fusion",[2],3600 pM
same,"IC50, neutralization of pseudotyped HIV-1",[2],140 pM
same,"IC90, inhibition of Env-mediated cell-cell fusion",[2],8800 pM
same,"IC90, neutralization of pseudotyped HIV-1",[2],390 pM
same,"IC50, neutralization in TZM-bl cell-based assay",[13],84 pM
same,"IC90, neutralization in TZM-bl cell-based assay",[13],610 pM
same,"IC50, neutralization in TZM-bl cell-based assay",[14],400 pM
same,"IC90, neutralization in TZM-bl cell-based assay",[14],2800 pM
same,"IC50, neutralization in TZM-bl cell-based assay",[15],450 pM
same,"IC90, neutralization in TZM-bl cell-based assay",[15],3700 pM
same,"IC50, neutralization of pseudotyped HIV-1",[3],140 pM
same,"IC90, neutralization of pseudotyped HIV-1",[3],1100 pM
same,"IC50, neutralization in TZM-bl cell-based assay",[16],77 pM
same,"IC90, neutralization in TZM-bl cell-based assay",[16],500 pM
same,"IC50, neutralization in TZM-bl cell-based assay",[17],750 pM
same,"IC90, neutralization in TZM-bl cell-based assay",[17],5700 pM
same,"IC50, neutralization of pseudotyped HIV-1",[4],< 21 pM
same,"IC90, neutralization of pseudotyped HIV-1",[4],< 21 pM
same,"IC50, neutralization of pseudotyped HIV-1",[5],37 pM
same,"IC90, neutralization of pseudotyped HIV-1",[5],100 pM
same,"IC50, neutralization of pseudotyped HIV-1",[6],610 pM
same,"IC90, neutralization of pseudotyped HIV-1",[6],4000 pM
same,"IC50, neutralization of pseudotyped HIV-1",[7],51 pM
same,"IC90, neutralization of pseudotyped HIV-1",[7],450 pM
same,"IC50, neutralization in TZM-bl cell-based assay",[18],22 pM
same,"IC90, neutralization in TZM-bl cell-based assay",[18],170 pM
same,"IC50, neutralization in TZM-bl cell-based assay",[19],2000 pM
same,"IC50, neutralization of pseudotyped HIV-1",[8],94 pM
same,"IC90, neutralization of pseudotyped HIV-1",[8],150 pM
same,"IC50, neutralization in TZM-bl cell-based assay",[20],720 pM
same,"IC90, neutralization in TZM-bl cell-based assay",[20],7400 pM
same,"IC50, neutralization in TZM-bl cell-based assay",[21],57 pM
same,"IC90, neutralization in TZM-bl cell-based assay",[21],220 pM
same,"IC50, neutralization of pseudotyped HIV-1",[9],28 pM
same,"IC90, neutralization of pseudotyped HIV-1",[9],430 pM
same,"IC50, neutralization of pseudotyped HIV-1",[10],290 pM
same,"IC90, neutralization of pseudotyped HIV-1",[10],3000 pM
same,"IC50, inhibition of Env-mediated cell-cell fusion",[11],4100 pM
same,"IC50, neutralization of pseudotyped HIV-1",[11],150 pM
same,"IC90, neutralization of pseudotyped HIV-1",[11],500 pM
same,"IC50, neutralization in TZM-bl cell-based assay",[22],480 pM
same,"IC50, neutralization of pseudotyped HIV-1",[12],830 pM
same,"IC90, neutralization of pseudotyped HIV-1",[12],8200 pM
same,"IC50, neutralization of pseudotyped HIV-1",[23],130 pM
same,"IC90, neutralization of pseudotyped HIV-1",[23],740 pM
same,"IC50, neutralization in TZM-bl cell-based assay",[24],81 pM
same,"IC90, neutralization in TZM-bl cell-based assay",[24],1000 pM
same,"IC90, neutralization in TZM-bl cell-based assay",[25],27000 pM
same,"IC50, neutralization of pseudotyped HIV-1",[26],60 pM
same,"IC90, neutralization of pseudotyped HIV-1",[26],290 pM
same,"IC50, neutralization of pseudotyped HIV-1",[27],120 pM
same,"IC90, neutralization of pseudotyped HIV-1",[27],360 pM
D1D2 (receptor),EC50 (read off the curve) of the enhancement of m36h1Fc binding,gp140Con-s (HIV-1) [28],10000 to 100000 pM
D1D2mFc (from UniProt P01730 26-203) (Fc fusion),EC50 (read off the curve),gp140Con-s (HIV-1) [29],300 pM
VRC01 (antibody),"IC50, neutralization of pseudotyped HIV-1",[1],530 pM
same,"IC90, neutralization of pseudotyped HIV-1",[1],9500 pM
same,"IC50, neutralization of pseudotyped HIV-1",[2],310 pM
same,"IC90, neutralization of pseudotyped HIV-1",[2],820 pM
same,"IC50, neutralization in TZM-bl cell-based assay",[13],330 pM
same,"IC90, neutralization in TZM-bl cell-based assay",[13],2600 pM
same,"IC50, neutralization in TZM-bl cell-based assay",[14],> 167000 pM
same,"IC90, neutralization in TZM-bl cell-based assay",[14],> 167000 pM
same,"IC50, neutralization in TZM-bl cell-based assay",[15],660 pM
same,"IC50, neutralization of pseudotyped HIV-1",[3],110 pM
same,"IC90, neutralization of pseudotyped HIV-1",[3],850 pM
same,"IC90, neutralization in TZM-bl cell-based assay",[16],31000 pM
same,"IC50, neutralization in TZM-bl cell-based assay",[17],1300 pM
same,"IC90, neutralization in TZM-bl cell-based assay",[17],6000 pM
same,"IC50, neutralization of pseudotyped HIV-1",[4],370 pM
same,"IC50, neutralization of pseudotyped HIV-1",[5],260 pM
same,"IC90, neutralization of pseudotyped HIV-1",[5],830 pM
same,"IC90, neutralization of pseudotyped HIV-1",[6],6600 pM
same,"IC50, neutralization of pseudotyped HIV-1",[7],330 pM
same,"IC90, neutralization of pseudotyped HIV-1",[7],3800 pM
same,"IC50, neutralization in TZM-bl cell-based assay",[18],> 167000 pM
same,"IC90, neutralization in TZM-bl cell-based assay",[18],> 167000 pM
same,"IC90, neutralization in TZM-bl cell-based assay",[19],10000 pM
same,"IC50, neutralization of pseudotyped HIV-1",[8],250 pM
same,"IC90, neutralization of pseudotyped HIV-1",[8],2600 pM
same,"IC50, neutralization in TZM-bl cell-based assay",[20],21000 pM
same,"IC90, neutralization in TZM-bl cell-based assay",[20],> 167000 pM
same,"IC50, neutralization in TZM-bl cell-based assay",[21],390 pM
same,"IC90, neutralization in TZM-bl cell-based assay",[21],5200 pM
same,"IC50, neutralization of pseudotyped HIV-1",[9],340 pM
same,"IC90, neutralization of pseudotyped HIV-1",[9],4400 pM
same,"IC50, neutralization of pseudotyped HIV-1",[10],280 pM
same,"IC90, neutralization of pseudotyped HIV-1",[10],5600 pM
same,"IC50, inhibition of Env-mediated cell-cell fusion",[11],2600 pM
same,"IC50, neutralization of pseudotyped HIV-1",[11],110 pM
same,"IC90, inhibition of Env-mediated cell-cell fusion",[11],24000 pM
same,"IC90, neutralization of pseudotyped HIV-1",[11],560 pM
same,"IC50, neutralization in TZM-bl cell-based assay",[22],3000 pM
same,"IC50, neutralization of pseudotyped HIV-1",[12],2000 pM
same,"IC90, neutralization of pseudotyped HIV-1",[12],26000 pM
same,"IC50, neutralization of pseudotyped HIV-1",[23],360 pM
same,"IC90, neutralization of pseudotyped HIV-1",[23],4300 pM
same,"IC90, neutralization in TZM-bl cell-based assay",[24],9500 pM
same,"IC50, neutralization in TZM-bl cell-based assay",[25],4200 pM
